Measured values reported in patent US7939292B2, “Modified heparinase III and methods of sequencing therewith” (Massachusetts Institute of Technology, priority 2000, dated 2011).
Numbering of substitutions follows the chain as printed. Names may count otherwise.

B1: H110A: recombinant heparinase III with histidine 110 mutated to alanine (protein)
chain: MTTKIFKRIIVFAVIALSSGNILAQSSSITRKDFDHINLEYSGLEKVNKAVAAGNYDDAAKALLAYYREKSKAREPDFSNAEKPADIRQPIDKVTREMADKALVHQFQPAKGYGYFDYGKDINWQMWPVKDNEVRWQLHRVKWWQAMALVYHATGDEKYAREWVYQYSDWARKNPLGLSQDNDKFVWRPLEVSDRVQSLPPTFSLFVNSPAFTPAFLMEFLNSYHQQADYLSTHYAEQGNHRLFEAQRNLFAGVSFPEFKDSPRWRQTGISVLNTEIKKQVYADGMQFELSPIYHVAAIDIFLKAYGSAKRVNLEKEFPQSYVQTVENMIMALISISLPDYNTPMFGDSWITDKNFRMAQFASWARVFPANQAIKYFATDGKQGKAPNFLSKALSNAGFYTFRSGWDKNATVMVLKASPPGEFHAQPDNGTFELFIKGRNFTPDAGVFVYSGDEAIMKLRNWYRQTRIHSTLTLDNQNMVITKARQNKWETGNNLDVLTYTNPSYPNLDHQRSVLFINKKYFLVIDRAIGEATGNLGVHWQLKEDSNPVFDKTKNRVYTTYRDGNNLMIQSLNADRTSLNEEEGKVSYVYNKELKRPAFVFEKPKKNAGTQNFVSIVYPYDGQKAPEISIRENKGNDFEKGKLNLTLTINGKQQLVLVP
B2: H139A: recombinant heparinase III with histidine 139 mutated to alanine (protein)
chain: B1 chain with A110H, H139A
B3: heparinase I: HLGAG degrading enzyme that cleaves at the highly sulfated regions of HLGAGs (protein, UniProt Q05819 22-384, looked up)
Heparin lyase I: QQKKSGNIPYRVNVQADSAKQKAIIDNKWVAVGINKPYALQYDDKLRFNGKPSYRFELKAEDNSLEGYAAGETKGRTELSYSYATTNDFKKFPPSVYQNAQKLKTVYHYGKGICEQGSSRSYTFSVYIPSSFPDNATTIFAQWHGAPSRTLVATPEGEIKTLSIEEFLALYDRMIFKKNIAHDKVEKKDKDGKITYVAGKPNGWKVEQGGYPTLAFGFSKGYFYIKANSDRQWLTDKADRNNANPENSEVMKPYSSEYKTSTIAYKMPFAQFPKDCWITFDVAIDWTKYGKEANTILKPGKLDVMMTYTKNKKPQKAHIVNQQEILIGRNDDDGYYFKFGIYRVGNSTVPVTYNLSGYSETAR

How the values were obtained:
[1] = Heparinase III kinetic assay of r-heparinase III and histidine mutants; type: biochemical; conditions: heparan sulfate; for Km: calculated assuming a molecular weight of 15 kDa
[2] = SAX-HPLC analysis of exhaustive heparan sulfate digests; type: biochemical; conditions: SAX-HPLC, overnight 37° C.
Protocol: Exhaustive digests of 3 mg/ml heparan sulfate in 50 mM sodium phosphate buffer, pH 7.6 were performed overnight at 37° C. for each of the mutants (20 μg protein). The reactions were loaded onto a Spherisorb S5 SAX column (Waters) and eluted using a linear gradient of 0.2-1.0 M NaCl, pH 3.5. The products were monitored at 232 nm and each of the major peaks was collected. To determine their composition, the collected fractions were analyzed by capillary electrophoresis and identified by comigration with known standards.
As a control, the r-heparinase III construct without its putative signal sequence was expressed. The concentration and purity of all recombinant enzyme preparations were determined using SDS-PAGE. The recombinantly expressed heparinase III was also compared to the heparinase III isolated from F. heparinum to ensure that they were the same molecular weight. Heparinase III (20 μg/mL) was incubated with a 4 mg/mL of heparan sulfate overnight at 37° C. The reaction was loaded onto a SAX column and the saccharide products were eluted using a gradient of 0.2-1.0 M NaCl, pH 3.5 over 30 min. and monitored at 232 nm. (A) Heparan sulfate digested with heparinase III from F. heparinum. (B) Heparan sulfate digested with recombinant heparinase III. (C) Heparan sulfate digested with the H295A mutant enzyme. (D) Heparan sulfate digested with the H510A mutant enzyme. (E) Heparan sulfate digested with the H105A mutant enzyme.

Akt = Akt activation in B16BL6 tumor; set-up: species or system mice; conditions: mouse, in vivo
Protocol: f. Effect of heparinase treatment on Akt activation. The primary tumor was treated and processed as described above. Akt antibody and phospho-Akt antibody from New England Biolabs were used to probe the immunoblot.

B16BL6 melanoma [3] = test: Histological examination of tumor samples (apoptosis, TdT labeling); type: in vivo, mice
Protocol: Immunohistochemistry was done as described (Parangi et al., 1996; O'Reilly et al., 1994) with minor modifications. Briefly, tumor tissues were fixed in either 4% (vol/vol) formaldehyde overnight for von Willebrand factor (vWF) staining and terminal deoxynucleotide transferase (TdT) labeling or in Glyo-Fixx solution overnight for Ki-67 nuclear antigen staining. Tissues were embedded in paraffin according to standard histological procedures. For vWF staining, sections (5 μm thick) were incubated with 0.2 N HCl for 10 min. autoclaved in a Coplin jar immersed with Target retrieval Solution (Dako) for 15 min. and permeabilized with 2 μg/ml proteinase K at 37° C. for 15 min. Sections were incubated with rabbit anti-human vWF antibody coupled with horseradish peroxidase (HRP) (Dako). Positive staining was detected by substrate reaction with diaminobenzidine. Sections were counterstained with Gill's hematoxylin and mounted in Permount (Fisher). […] Capillary density was determined by counting the number of vWF-positive capillaries per high power field (HPF, ×200). The proliferative and apoptotic indices of tumor cells within areas of viable tumor were estimated from the percentage of cells scored under a light microscope at 400-fold magnification. A minimum of 2000 cells were counted in each animal. # indicates standard error.

B16BL6 cells = test: Growth in mice of B16BL6 cells after heparinase removal of the HLGAG coat; type: in vivo; conditions: HLGAG coat removed
Source text: There are two possible mechanisms by which heparinase may be acting on tumor cells. For instance, heparinase III treatment of cells may result in cells losing their unique surface HLGAG coat and this directly or indirectly may impinge on their ability to grow or metastasize. On the other hand heparinase III treatment of cells may also result in the generation of distinct HLGAG fragments, and these fragments could then directly or indirectly modulate tumor cell function. It was thought that heparinase III may function though either one of these mechanisms or through some combination of these mechanisms. To investigate the mechanisms of action further, we treated B16BL6 cells with either heparinases I or III, to remove the HLGAG coat on the tumor cell surface.
In further support of this conclusion ex vivo digestion of the HLGAG coat present on tumor cells with either heparinase, followed by centrifugation and resuspension in PBS to remove the enzyme and HLGAG fragments released from the cell surface, prior to in vivo injection results in the cells being functionally identical to controls. Thus the released tumor cell HLGAG fragments appear to play the key role in modulating tumor growth and metastasis.

B16BL6 melanoma cells = test: Lung metastasis of heparinase treated B16BL6 cells after tail vein injection; type: in vivo, mice; conditions: cells treated 30 min at 37° C. before tail vein injection; 13 days
Protocol: We next investigated the ability of heparinase treated B16BL6 melanoma cells to metastasize to the lungs. B16BL6 cells in log growth phase were briefly trypsinized and resuspended in PBS to a final concentration of 1×10^6 per ml. Prior to injection, cells were treated with either PBS, hep I […] or hep III […] for 30 min. at 37° C. 0.2 ml cell suspensions (2×10^5 cells) were injected slowly via tail vein. Mice were sacrificed 13 days later and lungs were harvested, rinsed with tap water. The number of nodules on lung surface were counted with the assistance of a dissection microscope. * indicates p<0.05 (Mann-Whitney test).

FGFR1 = FGFR1 phosphorylation in B16BL6 tumor samples; set-up: species or system mice; conditions: mouse, in vivo
Protocol: c. Effect of treatment of tumor with hep I and hep III in FGFR1 activation compared to PBS. Level of phosphorylated FGFR1 in tumor samples was assessed by standard immunoprecipitation followed by Westernblotting with phosphotyrosine specific antibody. Primary B16BL6 tumors were grown and treated as described earlier and at day 15 the tumor was harvested in cold modified RIPA buffer containing enzyme inhibitors and homogenized. The homogenates were past through 25-gauge needle 3 times and centrifuged. The supernatant was adjusted for protein concentration using the Bio-Rad protein assay kit (Bio-Rad). FGFR1 was immunoprecipitated with poly-clonal anti-FGFR1 antibody (Santa Cruz Biotechnology, Inc., CA). Samples were then pelleted, washed, and eluted from the beads by addition of sample buffer and boiled for 3 minutes (Kapila, Y. L., Wang, S. & Johnson, P. W. Mutations in the heparin binding domain of fibronectin in cooperation with the V region induce decreases in pp125(FAK) levels plus proteoglycan-mediated apoptosis via caspases. J Biol Chem 274, 30906-13 (1999).). After electrophoresis, the gel was transferred to nitrocellulose membrane by standard methods. The immunoblot was probed with phosphotyrosine specific antibody conjugated to HRP (RC20; Transduction Laboratories, Lexington, Ky.) and developed with SuperSignal West Pico Chemiluminescent substrate. […]

Erk-1, 2 = Erk-1, 2 activation in FGF2 stimulated B16BL6 cells (immunoblot); type: cell-based; conditions: enzyme 200 nM 30 min before 50 ng/ml FGF2
Protocol: a. Methods: B16BL6 cells in 10 cm culture dishes were serum starved for 48 hours before stimulation with 50 ng/ml FGF2. Cells were stimulated for 20 minutes before whole cell lysates were prepared with 1 ml modified RIPA buffer containing various enzyme inhibitors (50 mM Tris-HCl, pH 7.4, 1% NP-40, 0.25% Na-deoxycholate, 150 mM NaCl, 1 mM EDTA, 1 mM PMSF, 1 μg/ml aprotinin, leupeptin, and pepstatin, 1 mM activated Na3VO4, 1 mM NaF). Protein concentration in the lysate was determined using the Bio-Rad protein assay kit (BioRad) and adjusted accordingly for electrophoresis analysis. For the heparinase treated groups, cells were treated with either hep I or hep III (200 nM) for 30 min at 37° C. prior to addition of FGF2. The immunoblot was probed with anti-Erk-1, 2 or anti-phospho-Erk-1, 2 antibody (New England Biolabs; MA) and detected by anti-rabbit IgG conjugated to HRP using SuperSignal West Pico Chemiluminescent substrate (Pierce, Ill.).

B16BL6 melanoma [4] = test: Primary tumor growth of B16BL6 melanoma in mice treated with heparinases; type: in vivo; conditions: 0.5 mg/kg/day
Source text: Heparinases I and III, which have very distinct substrate specificities for cleaving HLGAGs, were employed as tools to investigate the role of HLGAGs in tumor growth and metastasis. While heparinase I cleaves at the highly sulfated regions of HLGAGs, heparinase III only cleaves at the under-sulfated regions of the polysaccharide chain, thereby rendering these enzymes powerful tools to investigate in vivo and in vitro roles of HLGAGs, in development, morphogenesis, angiogenesis etc. To examine the roles of HLGAGs in tumor growth and metastasis, we used B16BL6 melanoma as a model system and treated tumor-bearing mice with either heparinases I or III to investigate both primary tumor growth as well as tumor metastasis. Consistent with the current paradigm, heparinase I accelerated tumor growth (FIG. 8). At a dosage of 0.5 mg/kg/day of heparinase I, tumor growth was increased by about 39%. […] Inhibition of primary tumor growth by heparinase III was first observed at 2 mg/kg per day. Tumor growth was inhibited by 73% at 12 mg/kg per day, the maximum dosage tested in the study (FIG. 8).
Mice, 15 days after tumor implantation with B16BL6 melanoma, were examined. 4×10^5 log growth phase B16BL6 melanoma cells in 0.1 ml PBS were injected to the flank of C57BL/6 mice on day 1. Daily injection of 0.1 ml of PBS, heat inactivated hep III or active heparinase III (2 mg/ml, recombinantly expressed, purified, buffer exchanged with PBS, and concentrated) started at the day 4 and continued throughout the experiment. At day 7, osmotic pumps (100 μl capacity delivering at 0.5 μl per hour) containing PBS or 3 mg/ml hep III were implanted subcutaneously at a place remote from the tumor site. Mice were sacrificed at day 15.
FIG. 8 depicts the tumor volume of the tumors isolated from the mice described above. Tumor volume was measured daily after day 7 with a caliper and calculated with the formula [volume=0.52×(width)^2×(length)].

| Molecule | kcat [1] | Km [1] | catalytic activity in overnight heparan sulfate digests [2] | activation of Akt in tumor (Akt) | apoptosis in tumor samples, enzyme treated tumors (B16BL6 melanoma [3]) | ability of treated B16BL6 cells to grow in mice compared to untreated cells (B16BL6 cells) | ability of treated B16BL6 cells to metastasize to the lungs compared to PBS treated cells (B16BL6 melanoma cells) | phosphorylation of FGFR1 in primary tumor (FGFR1) | Erk-1, 2 activation upon FGF2 stimulation (Erk-1, 2) | increase of tumor growth (B16BL6 melanoma [4]) |
| --- | --- | --- | --- | --- | --- | --- | --- | --- | --- | --- |
| B1 | 37 s⁻¹ | 9 µM | retain their catalytic activity | – | – | – | – | – | – | – |
| B2 | 68 s⁻¹ | 191 µM | retain their catalytic activity | – | – | – | – | – | – | – |
| B3 | – | – | – | no change in activation of Akt | reduced apoptosis | no effect | marginally effected, if any | opposite effect on the phosphorylation of FGFR1 | increased Erk-1, 2 activation | about 39% |
